In this assay the target is p53, Gal4 fusion of the two-hybrid control plasmid pM53. Kind of assay: two-hybrid.

Where “and” joins values, the source holds several entries; their conditions need not be identical. Equal values may be shown once.

Consider “SV-40 large T, VP16 fusion of the two-hybrid control plasmid pV-T (natural protein)”, for which the CAT protein of the two-hybrid reporter was 186 pg and 251 pg.

Values taken from article PMC2138200.
